# Experimental data as given in the supplement of paper PMC9112550, “Optimization of the antimicrobial peptide Bac7 by deep mutational scanning” (BMC Biology, 2022).
# Tested on: Escherichia coli TOP10
# Test: shrunken log2 fold change of peptide-encoding DNA abundance (4.5 h post-induction vs induction); higher = less antimicrobial activity (less host growth inhibition)
# Details: time post-induction: 4.5 h; library: site-saturation at positions 5, 18, 19, 20
# 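Further: peptides expressed intracellularly from a pBAD plasmid library in pooled LB shake-flask culture, induced with 0.3% L-arabinose, DNA abundance read by NGS, three biological replicates, DESeq2 with apeglm shrinkage.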
sequence,measurement,value
RRIRDRPPRLPRPRPRPGGVPRP,shrunken log2 fold change,0.434
RRIRARPPRLPRPRPRPKTGPRP,shrunken log2 fold change,0.427
RRIRTRPPRLPRPRPRPMAPPRP,shrunken log2 fold change,0.294
RRIRDRPPRLPRPRPRPKDLPRP,shrunken log2 fold change,-0.0191
RRIRRRPPRLPRPRPRPVLMPRP,shrunken log2 fold change,0.146
RRIRTRPPRLPRPRPRPDHCPRP,shrunken log2 fold change,-0.116
RRIRQRPPRLPRPRPRPMFGPRP,shrunken log2 fold change,0.0107
RRIRWRPPRLPRPRPRPCLWPRP,shrunken log2 fold change,0.0333
RRIRARPPRLPRPRPRPLEKPRP,shrunken log2 fold change,0.439
RRIRTRPPRLPRPRPRPRLGPRP,shrunken log2 fold change,0.169
RRIRWRPPRLPRPRPRPGLWPRP,shrunken log2 fold change,1.16
RRIRKRPPRLPRPRPRPRIDPRP,shrunken log2 fold change,-0.154
RRIRMRPPRLPRPRPRPIKRPRP,shrunken log2 fold change,0.0532
RRIRDRPPRLPRPRPRPCPVPRP,shrunken log2 fold change,-0.426
RRIRMRPPRLPRPRPRPHICPRP,shrunken log2 fold change,-0.0377
RRIRTRPPRLPRPRPRPCTTPRP,shrunken log2 fold change,-0.0816
RRIRQRPPRLPRPRPRPRVYPRP,shrunken log2 fold change,0.0498
RRIRCRPPRLPRPRPRPMPQPRP,shrunken log2 fold change,0.202
RRIRSRPPRLPRPRPRPLQLPRP,shrunken log2 fold change,-0.456
RRIRMRPPRLPRPRPRPSVKPRP,shrunken log2 fold change,0.185
RRIRFRPPRLPRPRPRPNFKPRP,shrunken log2 fold change,-0.222
RRIRNRPPRLPRPRPRPEIQPRP,shrunken log2 fold change,-0.0724
RRIRRRPPRLPRPRPRPGPLPRP,shrunken log2 fold change,0.415
RRIRQRPPRLPRPRPRPQFPPRP,shrunken log2 fold change,-0.202
RRIRWRPPRLPRPRPRPNALPRP,shrunken log2 fold change,0.15
RRIRCRPPRLPRPRPRPVLPPRP,shrunken log2 fold change,2
RRIRNRPPRLPRPRPRPERNPRP,shrunken log2 fold change,-0.0623
RRIRTRPPRLPRPRPRPEANPRP,shrunken log2 fold change,-0.0399
RRIRLRPPRLPRPRPRPTASPRP,shrunken log2 fold change,0.0857
RRIRLRPPRLPRPRPRPCMDPRP,shrunken log2 fold change,-0.351
RRIRGRPPRLPRPRPRPDSVPRP,shrunken log2 fold change,0.704
RRIRPRPPRLPRPRPRPSADPRP,shrunken log2 fold change,-0.0256
RRIRNRPPRLPRPRPRPAENPRP,shrunken log2 fold change,-0.0634
RRIRLRPPRLPRPRPRPHIEPRP,shrunken log2 fold change,-0.0305
RRIRIRPPRLPRPRPRPTACPRP,shrunken log2 fold change,0.0015
RRIRGRPPRLPRPRPRPYMMPRP,shrunken log2 fold change,-0.232
RRIRKRPPRLPRPRPRPQQDPRP,shrunken log2 fold change,0.179
RRIRPRPPRLPRPRPRPMAFPRP,shrunken log2 fold change,0.0207
RRIRHRPPRLPRPRPRPVIIPRP,shrunken log2 fold change,-0.248
RRIRFRPPRLPRPRPRPMRQPRP,shrunken log2 fold change,0.0953
RRIRPRPPRLPRPRPRPCFRPRP,shrunken log2 fold change,0.00938
RRIRDRPPRLPRPRPRPVGHPRP,shrunken log2 fold change,0.423
RRIRVRPPRLPRPRPRPHPGPRP,shrunken log2 fold change,-0.325
RRIRMRPPRLPRPRPRPPVPPRP,shrunken log2 fold change,1.01
RRIRCRPPRLPRPRPRPAPCPRP,shrunken log2 fold change,0.122
RRIRCRPPRLPRPRPRPLQLPRP,shrunken log2 fold change,-0.546
RRIRARPPRLPRPRPRPKIAPRP,shrunken log2 fold change,0.177
RRIRDRPPRLPRPRPRPLCKPRP,shrunken log2 fold change,-0.224
RRIRLRPPRLPRPRPRPYLEPRP,shrunken log2 fold change,-0.169
RRIRRRPPRLPRPRPRPHSHPRP,shrunken log2 fold change,-0.0882
RRIRFRPPRLPRPRPRPFVKPRP,shrunken log2 fold change,-0.457
RRIRTRPPRLPRPRPRPDWQPRP,shrunken log2 fold change,-0.0206
RRIRDRPPRLPRPRPRPVVQPRP,shrunken log2 fold change,-0.0248
RRIRRRPPRLPRPRPRPVFCPRP,shrunken log2 fold change,0.291
RRIRPRPPRLPRPRPRPIKVPRP,shrunken log2 fold change,-0.468
RRIRWRPPRLPRPRPRPSLMPRP,shrunken log2 fold change,0.122
RRIRIRPPRLPRPRPRPMWDPRP,shrunken log2 fold change,0.205
RRIRNRPPRLPRPRPRPDNMPRP,shrunken log2 fold change,-0.104
RRIRARPPRLPRPRPRPQKSPRP,shrunken log2 fold change,0.0945
RRIRSRPPRLPRPRPRPWDSPRP,shrunken log2 fold change,-0.729
RRIRFRPPRLPRPRPRPSAMPRP,shrunken log2 fold change,-0.0766
RRIRSRPPRLPRPRPRPVQHPRP,shrunken log2 fold change,-0.0389
RRIRVRPPRLPRPRPRPAECPRP,shrunken log2 fold change,-0.0646
RRIRPRPPRLPRPRPRPDEAPRP,shrunken log2 fold change,-0.152
RRIRTRPPRLPRPRPRPCFIPRP,shrunken log2 fold change,-1.05
RRIRHRPPRLPRPRPRPHRPPRP,shrunken log2 fold change,-0.133
RRIRRRPPRLPRPRPRPIGYPRP,shrunken log2 fold change,0.0143
RRIRDRPPRLPRPRPRPRFEPRP,shrunken log2 fold change,0.0618
RRIRGRPPRLPRPRPRPPLLPRP,shrunken log2 fold change,0.633
RRIRERPPRLPRPRPRPCVPPRP,shrunken log2 fold change,0.0169
RRIRFRPPRLPRPRPRPASDPRP,shrunken log2 fold change,-0.32
RRIRDRPPRLPRPRPRPLEDPRP,shrunken log2 fold change,-0.00783
RRIRWRPPRLPRPRPRPATAPRP,shrunken log2 fold change,0.983
RRIRDRPPRLPRPRPRPTQVPRP,shrunken log2 fold change,0.0721
RRIRFRPPRLPRPRPRPSTPPRP,shrunken log2 fold change,-0.463
RRIRQRPPRLPRPRPRPWMAPRP,shrunken log2 fold change,-0.147
RRIRIRPPRLPRPRPRPGMIPRP,shrunken log2 fold change,-0.309
RRIRVRPPRLPRPRPRPTFDPRP,shrunken log2 fold change,-0.0428
RRIRIRPPRLPRPRPRPQVYPRP,shrunken log2 fold change,0.0822
RRIRDRPPRLPRPRPRPGMVPRP,shrunken log2 fold change,0.548
RRIRYRPPRLPRPRPRPIDFPRP,shrunken log2 fold change,-0.245
RRIRSRPPRLPRPRPRPCTWPRP,shrunken log2 fold change,-0.125
RRIRNRPPRLPRPRPRPTNAPRP,shrunken log2 fold change,-0.182
RRIRHRPPRLPRPRPRPIFRPRP,shrunken log2 fold change,-0.173
RRIRKRPPRLPRPRPRPHARPRP,shrunken log2 fold change,0.709
RRIRTRPPRLPRPRPRPMYYPRP,shrunken log2 fold change,0.0219
RRIRDRPPRLPRPRPRPGAQPRP,shrunken log2 fold change,1.02
RRIRDRPPRLPRPRPRPPCEPRP,shrunken log2 fold change,0.121
RRIRVRPPRLPRPRPRPTPWPRP,shrunken log2 fold change,0.294
RRIRLRPPRLPRPRPRPERLPRP,shrunken log2 fold change,0.466
RRIRWRPPRLPRPRPRPKTTPRP,shrunken log2 fold change,-0.0128
RRIRWRPPRLPRPRPRPKLAPRP,shrunken log2 fold change,1.03
RRIRERPPRLPRPRPRPGSPPRP,shrunken log2 fold change,-0.0668
RRIRARPPRLPRPRPRPATFPRP,shrunken log2 fold change,0.129
RRIRIRPPRLPRPRPRPKAGPRP,shrunken log2 fold change,0.0458
RRIRPRPPRLPRPRPRPDYSPRP,shrunken log2 fold change,-0.815
RRIRIRPPRLPRPRPRPHNRPRP,shrunken log2 fold change,-0.573
RRIRYRPPRLPRPRPRPMQQPRP,shrunken log2 fold change,-0.0118
RRIRYRPPRLPRPRPRPVCFPRP,shrunken log2 fold change,-0.674
RRIRKRPPRLPRPRPRPQLHPRP,shrunken log2 fold change,0.0197
RRIRDRPPRLPRPRPRPNDFPRP,shrunken log2 fold change,0.239
RRIRCRPPRLPRPRPRPVSFPRP,shrunken log2 fold change,-0.228
RRIRWRPPRLPRPRPRPCFTPRP,shrunken log2 fold change,-0.0397
RRIRGRPPRLPRPRPRPTTNPRP,shrunken log2 fold change,0.878
RRIRHRPPRLPRPRPRPPEFPRP,shrunken log2 fold change,-0.0433
RRIRKRPPRLPRPRPRPEYDPRP,shrunken log2 fold change,1.13
RRIRSRPPRLPRPRPRPRADPRP,shrunken log2 fold change,0.387
RRIRFRPPRLPRPRPRPEKGPRP,shrunken log2 fold change,0.0184
RRIRVRPPRLPRPRPRPGTNPRP,shrunken log2 fold change,-0.254
RRIRDRPPRLPRPRPRPPEMPRP,shrunken log2 fold change,0.78
RRIRDRPPRLPRPRPRPGVLPRP,shrunken log2 fold change,-0.0992
RRIRGRPPRLPRPRPRPWVFPRP,shrunken log2 fold change,0.758
RRIRMRPPRLPRPRPRPSCGPRP,shrunken log2 fold change,0.687
RRIRSRPPRLPRPRPRPHDQPRP,shrunken log2 fold change,0.276
RRIRLRPPRLPRPRPRPKNVPRP,shrunken log2 fold change,-0.124
RRIRDRPPRLPRPRPRPAQHPRP,shrunken log2 fold change,0.288
RRIRRRPPRLPRPRPRPSPFPRP,shrunken log2 fold change,0.292
RRIRGRPPRLPRPRPRPITRPRP,shrunken log2 fold change,0.133
RRIRPRPPRLPRPRPRPKEVPRP,shrunken log2 fold change,-0.0501
RRIRTRPPRLPRPRPRPERFPRP,shrunken log2 fold change,0.0107
RRIRARPPRLPRPRPRPCTRPRP,shrunken log2 fold change,-0.00176
RRIRERPPRLPRPRPRPEDGPRP,shrunken log2 fold change,-0.0324
RRIRFRPPRLPRPRPRPGMGPRP,shrunken log2 fold change,0.102
RRIRQRPPRLPRPRPRPNQCPRP,shrunken log2 fold change,0.0304
RRIRKRPPRLPRPRPRPHNGPRP,shrunken log2 fold change,0.169
